This is an account of results in the supplement of paper PMC12764529.

A short description of data set [1]: folding stability dG unfold from chymotrypsin proteolysis; higher = more stable. Put shortly: (§1)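 K50 was inferred by Bayesian fitting of sequencing counts obtained after protease digestion of designed mini-proteins. Unfolding free energy was derived by comparison with a sequence-predicted unfolded-state K50 and a shared folded-state K50, for each protease or both combined. The mini-proteins were under 80 residues, had no cysteine, were carried in a PA-tagged cDNA display construct, and were kept only if AlphaFold2 dimer inter-PAE exceeded 15.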

The nature of data set [2]: folding stability dG unfold (combined trypsin and chymotrypsin); higher = more stable. The gist of the method:
as §1

Data set [3] is described as follows: folding stability dG unfold from trypsin proteolysis; higher = more stable. Put shortly: as §1

± gives the half width of the 95% confidence interval.

On to “SAMVIPAEVRLPGTPEEVLEKAREFADTLAARFRELGFEVVAVELEEIEPGEAVVRLRIVVARPDEEFPSAG [r14_973_TrMRF]”, for which the “folding stability dG unfold” value in data set [1] turned out to be 2.79 ± 0.03 kcal/mol; in data set [2], 2.85 ± 0.069 kcal/mol; in data set [3], 2.75 ± 0.086 kcal/mol.
Taken in the same sequence, the figures for “SAMVITTSLEEARKRTGLSESASPEEVRAAVEALIAAETAAGVTLLAIELLEVGDTWTLRVEIERAGGVSAG [r14_158_JUSTAS]” were 1.72 ± 0.068 kcal/mol, 2.07 ± 0.077 kcal/mol and 2.36 ± 0.057 kcal/mol.
Taken in the same sequence, the figures for “SAMVLDLTELLREKAAEIRKADPRPLTPEELRELAREAAEELAKETGKPITEIRVEETDEWPRITAVVLSAG [r14_147_JUSTAS]” were -0.358 ± 0.3 kcal/mol, 0.461 ± 0.24 kcal/mol and 1.04 ± 0.044 kcal/mol.
For the sequence “SAMVLRIKVEVNGETKEIEIELPPNAKIEKKDGELTIYVKNPETGKIFKFKFKKNAKIVEVEEVDPEDLSAG [r14_313_TrROS_Hall]”, the “folding stability dG unfold” value in data set [1] stood at 4.22 ± 0.052 kcal/mol; in data set [2], 3.83 ± 0.1 kcal/mol; in data set [3] it was 2.6 ± 0.046 kcal/mol.
Taken in the same sequence, the figures for “SAMVTYDPEKGVFEAEIEVGGETLRVTVVRDPETGEVVAVVERPGSGEPVVLPLPFKSLSDVIRYAEEHSAG [r14_803_TrMRF]” were 2.49 ± 0.044 kcal/mol, 2.36 ± 0.11 kcal/mol and 2.3 ± 0.07 kcal/mol.
Taken in the same sequence, the figures for “SAMVVIKPEGDKIVVEITLPDGSTKVIELPEVEKIEIKGDTLIITDPKTGKKIIPENTTVSNPKIEPAKSAG [r14_83_JUSTAS]” were -0.0623 ± 0.064 kcal/mol, 0.0698 ± 0.14 kcal/mol and -0.167 ± 0.065 kcal/mol.
Taken in the same sequence, the figures for “SAMVVIPFPKDTPPEVALEAVRKAVREAAENGIVPEKIVVVAHPDLVFLVDSLVEAGIPLENVEFVPSESAG [r14_589_TrMRF]” were 2.86 ± 0.057 kcal/mol, 2.88 ± 0.052 kcal/mol and 2.87 ± 0.069 kcal/mol.
With “SAMVVPVKVELEIRVPGTPEEALEIAEELAKAFESLGNVEVDLELIEKSEDGSYIIKLTVTNYLPPELFSAG [r14_413_TrMRF]”, the “folding stability dG unfold” value in data set [1] came out at 1.99 ± 0.11 kcal/mol; in data set [2] it was 1.53 ± 0.21 kcal/mol; in data set [3], 0.905 ± 0.1 kcal/mol.
Taken in the same sequence, the figures for “SAMYEPAEFSFTLPNGEKIHITAPKNPNTDEPIVSITIYRKLPDGNTVSFTITVKSSDIDEIIEKLGIKSAG [r14_416_TrMRF]” were 3.74 ± 0.11 kcal/mol, 3.67 ± 0.32 kcal/mol and 3.39 ± 0.095 kcal/mol.
In the case of “SANDDDWVTVIFEIPIVRKDPDGKPEKHPFRLMVQVHPDGRVEINIMYPNGRPIASQTVPPGQTLEDFISAG [r14_559_TrROS]”, the “folding stability dG unfold” value in data set [1] turned out to be 3.84 ± 0.077 kcal/mol; in data set [2] it was 3.38 ± 0.23 kcal/mol; in data set [3], 2.63 ± 0.13 kcal/mol.
Taken in the same sequence, the figures for “SANGEMTMMFEFEIFFPGLGYRGKIYVMMRIEPTPNQIRIDLMIMIEIEPIPPPPPKVPPEQNPEDADDSAG [r14_435_TrROS]” were 5.18 ± 0.2 kcal/mol, 5.23 ± 0.48 kcal/mol and 3.82 ± 0.21 kcal/mol.
For “SANGKEYTFTIEIRVRDPENGQPWTIRITVPIWYDPDDGKLDIDIDVTPTPGMPKEWAERIAKEIIEAISAG [r14_152_TrROS]”, the “folding stability dG unfold” value in data set [1] is 3.95 ± 0.048 kcal/mol; in data set [2] it was 3.6 ± 0.076 kcal/mol; in data set [3] it was 3.04 ± 0.11 kcal/mol.
Taken in the same sequence, the figures for “SAPAVLLEEPDTLVEVEKLPDGSLLIRRVTKFPDGSVTVEISVIYPGGSLSVLESVTLNVPPEEPLPLLSAG [r14_42_JUSTAS]” were 1.46 ± 0.051 kcal/mol, 1.91 ± 0.073 kcal/mol and 2.42 ± 0.054 kcal/mol.
Taken in the same sequence, the figures for “SAPDPEQRKKNREQQEKNERMIPIQIHVYDKDGKWKPIGPVWFKDPDVPIDDLVPTFHDEGFDYVSISISAG [r14_318_TrROS]” were 0.209 ± 0.23 kcal/mol, 0.299 ± 0.21 kcal/mol and 0.153 ± 0.15 kcal/mol.
Taken in the same sequence, the figures for “SAPDWVKIKFPFRFYNPDPDGKPMAKMKLEIEVYPSPGAYMAKIEDPNFGMKITFPFDSPEEVKDFLQNSAG [r14_508_TrROS]” were 1.14 ± 0.25 kcal/mol, 1.23 ± 0.32 kcal/mol and 1.25 ± 0.083 kcal/mol.
On to “SAPEVEVFPGKDNSALVRVVFEFDGYRIEVVRRVPVEALKAGIPLEELPDVEILEVRVVKLPKPRPDELSAG [r14_856_TrMRF]”, for which the entries for the “folding stability dG unfold” value in data set [1], in data set [2] and in data set [3] were 2.85 ± 0.029 kcal/mol, 2.58 ± 0.061 kcal/mol and 2.17 ± 0.056 kcal/mol, respectively.
Taken in the same sequence, the figures for “SAPEVFRFTIPRYRDDYEFDGDGYPVLKERKPVAPLEVEAVVFEDGTVRVRVGDEVREFPLGVSPEELFSAG [r14_909_TrMRF]” were 0.355 ± 0.18 kcal/mol, 0.566 ± 0.1 kcal/mol and 0.601 ± 0.22 kcal/mol.
For “SAPFTATETVVTEEEDPATGLTRIPVEMTVDDHPVTGEGVRDPADPSRVSFSITFPDSDLTLTGEEPLPSAG [r14_178_JUSTAS]”, the “folding stability dG unfold” value in data set [1] is -0.0428 ± 0.11 kcal/mol; in data set [2], 0.312 ± 0.048 kcal/mol; in data set [3], 0.491 ± 0.036 kcal/mol.
